This note sets out measurements from publication PMC3041752.

Test [1] deals with budding yeast Proliferating Cell Nuclear Antigen (PCNA) (budding yeast). Kind of test: SEC-MALS; gel filtration coupled to multi-angle light scattering; 3 or 0.3 mg/ml (~100 or 10 µM) in 20 mM sodium phosphate, 150 mM NaCl, 0.03% (w/v) sodium azide, pH 7.0.
Test [2] shares this target. Kind of test: AUC; sedimentation velocity, 100 µM protein (monomer concentration); trimer to monomers.
The target of test [3] is human Proliferating Cell Nuclear Antigen (PCNA) (human). The experiment in a line: SEC-MALS; gel filtration coupled to multi-angle light scattering; 3 or 0.3 mg/ml (~100 or 10 µM) in 20 mM sodium phosphate, 150 mM NaCl, 0.03% (w/v) sodium azide, pH 7.0.
Test [4] has the same target. The experiment in a line: AUC; sedimentation velocity, 100 µM protein (monomer concentration); trimer to monomers.

In test [1], “budding yeast Proliferating Cell Nuclear Antigen (PCNA) (natural protein)” registered a population of species with the molecular weight of a dimer of trimers of less than 4% and a stoichiometry N of 3. Moreover, in test [2], the population of monomers in equilibrium with the trimer was less than 3% and the stoichiometry N came to 3.
As to “human Proliferating Cell Nuclear Antigen (PCNA) (natural protein)”, in test [3], the population of species with the molecular weight of a dimer of trimers was less than 4% and the stoichiometry N turned out to be 3. In addition, in test [4], the population of monomers in equilibrium with the trimer is less than 3% and the stoichiometry N stood at 3.

The stoichiometry N is the number of molecules, sites or subunits per partner or assembly.
